According to a protein production outcome set (Wang et al. 2014):

Experiment: label from the status in PepcDB records

Sequence: MNNVSTRAPVRGTKTSLTLPNILTYARIAAIPVVVGCIFAQSILGGPLALRWVALAVFIAAAITDFLDGHFARIWDQQSAFGRMLDPIADKLLVASCLLMLAADSIIHGWTLWAAIVILCREILVSGLREYLAALRVSVPVTRLAKWKTTAQLVAIGFLLAGEAGDEVLPFTTEIGVSLLWLSALLTMYTGYDYFRAGIHHLIEEDQA
- protein production: failed

Sequence: MEKSKIINYWDKRAESFSKNKLAELESTHAQKWIEEINNINPIQPGMKILDIGTGAGFLAILCGNLGSDVTGIDLSPEMIQSAKQNAESHHQDIHFQVMDAESLQFNDETFDMVISRNVTWLLPNTKAAYQEWLRVLKPNGKLINIDANYGNDSFTDYKSLNTEHAHHTLGKDMLAESEAIKQNIPINHQPRPQTDMDILKSLGFDHIHLDTEIYLRMYSEQDEFYNPTPIFLISVTKSY
- protein production: failed

Sequence: IGPSSSHTMGPMTAANVFRDHVDQLVSQTPDDLNYRVYCVLKGSLAFTGRGHATDRAVALGLHGHSPVSLAGEDVNALTAKLWATDTLQLTSGREIGFNPEDDIVFDKSDPLPQHPNGMIFYLLDEEGKKILSETFFSIGGGFICTLAEINQ
- protein production: not failed

Sequence: MAPKAQKSPKGQRKGKKKTKQQSLVSEEEEPMNMESMDVAPGSSPDLDISMASDGHPEIYPLVLTAKTQEIFNCRIDEDMTDEQTYKLIKKEDILADLQNRAAVSDFHPVKKIVLEYPGEELLLVYDKDFKYGLNFYLIGTEEGKENFLKAPEIPEEQEDLKEHVPEDVYIYKPPVSKPWISLGSEKEIEEESVQESKKRVTYMISRKRSQFGAPVTFRDQNASSVKDAYIECTSYPDKSYTLTQVEKDIGLQVIAEVKDTSTQTRWAFPRNATTQYYPREFSEEEKNVLVESKSLAEFFSTVSTSVEIALQQNEIMNTFTDDWRSLAEEESTFGDKTDTHLKEYQSFTDLHNTMEKMITCVSWHPTIYGLIVVSVAVRLSYEERVQNSSRLLLQPSLILFWSFSDPIHPQLMLESPDDIFCFEFCPSDPNIIAGGCINGQIILWDITAHAERIENIKTGGSRSKKATLKPMFLLEPDSNKEIMYVRHCAVSSIENGHRKVITDIHWLPDSFEINRMGSVFENRSGINCQLITCSADCTICFWDIRPQKPTVTSAATATTTSTTNTNPQQPPAEKKKEESIEIPFDVPSTFLHLDLSWKPLSRIKLSKGETSLDHCPTKLSLGEDPALCKIQDKMLSQMKLLKAAEINPYQNLEGGMANMLKPIEDFRTKFFVGTEEGEVIYTDWKMERDSETGRLMAKKPVNLYTVHDGAVHTVQRSPFFNDIILTVGGWNVAIWKEEVLTGPLLQTCCAPKRYTAGHWSLTRPGVFYIGREDGYVDIWDLLEKTHEPAQSQSICITMITYIKPWTFSCRPPFLPQADRSMMVSLLMSMRHSAKPSGDQNPVSSVNYYFEREVKHLEYVQQRKEIREEEKKAMAMEMIKKKAKTYHRSKEQMEAELKLEYESYLELEQSVLFALGLGKVSEKMSYLDLH
- protein production: failed

Sequence: MRLIRSVLCSSSAGFGQGFCSPSLRRHLSARFPRGHGNALANFSSCARSRVHAYSSASSATSVGVPVAKMRFIDIGANLLDEMYTGQYNDKPYHPPDLSAVLERAWAAGLEKLMITAGSLKEARAALELAKTDERLYCTVGCHPTRCKEFEDHPGGPEAYLQELLEVLKEGQALGKVVAVGECGLVATDYERLHFCDADTQKKYFEAQFRLAKESGLPMFLHLRAAADDFLDITGRHLGDFPRGGVVHSFDGTAEEAARVLAVPQLAIGINGCSLKTDDNLAVVGGLPLERIMLETDCPWCEIRPTHAGRKHVSAEALAGVTGAKDRKKFMPGCQVKSRNEPANIRQVLEVVAGVKGRTDLEAVADVIFGNTERMFFPTA
- protein production: failed

Sequence: MISTLNEIMKCIEDNDTIIIHRHVRPDPDAYGSQLGLKYYIQQKFPQKQVFAVGEAESSLSFIGELDNIDDKTYQDALVIVCDTANAPRIDDERYSTGSKLIKIDHHPAVDQYGDINLVNTNASSTSEIIYDLISHFNDEAIVNKDIASVLYLGIVGDTGRFLFNNTSEHTMEIAGKLIGHDIDHNALLNKMMEKDPKMLPFQGYVLQHFELMDDGFCQVKITEDVLEQFGIQPNEASQFVNTIADIKGLKIWVFAVDEGSEIRCRLRSKGQLIINDIAQDFGGGGHPNASGVSVNSWDEFEQLATALRTKLN
- protein production: failed

Sequence: MLFRHKGILYLFLSSLIISAANPVIAKLITLGNEHLVNGRNPISFCNVLFAGNFIAVLTLILIHFRELKEFQPEHLTAKNWCLIFLAALFAGFLTPTLFFLGLMYTNVINVVLISNLQIPMTLLAGWIFLGEVPNIRVTTGAFLATLGVFAIVILQYWLGGAGALTPNPEMKTGPLFIFLSSIPRSGEICIFLAVVSSTASTIIGFHALRRLPHYLFSILKMLLGLVLFFFIVISMFGWHHFADLFSPFLWEWMLFYGSVIIALRYYFSMLGMKHAKVAEVAISSSIIPLMSIIFSYLILGEVPGISQIIGGSLILFGIYVALTGKLQAPEKTEILEKPSGFSGV
- protein production: failed

Sequence: MHKFIVIFVTLLISISVQTLAADLEIEEIELRETPQKMYDRLNQSISFPISFKNREQFERAAQEQGYSPDEFEHILQLLARLNLEPNVKTKVEFQDANSLIELLTSIAQTPLEQATVAMLKGRYIGRTEQKYQEAIAFYNQALSHINDSVDLGSMLLKHTIHEHLGLLHLVIRQDVPALMHFHTYRDIAYKLRNDYLIAAAESKLGHYYNKNQQLTKSLQHYSEAVRLSNRSNYPSMKTHLQLQLAKVYRDLKQWDEALKNAHEAAAGFKKLGNDTYLSSCMTVIAMVYGEQGDWNRAIDYYLNAQQLDAKRGNYIAQGLNFHNLGQAYSHLNDNVNALKYLLMANKIFTDKQSHHYLVYNELLIGEIAQSKQDWTLMMSHAEHALALASNLALLDEQKSALTQIALSAEKMQDQAKVISTQKRIIELNNTSKNTAKDPAVAASVLAEQQLKLELNMVQGKLNDAIESAKETNKLLALSGVILTLLVIAIIALLNQRQKSRRQNESLLQLTLEEPFTHHKGYAALLRDLGPNTPHTRTTALALIEFRDHLMTDLNHGQYFANAITCQLASHISNSLFMPVYVIRQGLFAVRFTETVDPQQALTQLQQQLDKNAFTAIFNLGFINLPLLTKTEINIAPKLLFETVQMALAGARSLPSNTCHYVSLRALDFVPPTLFADPLFLHLEKGIERGLIRVETNAMKEDIVWPCWENNQNRHLLGNI
- protein production: failed

Sequence: VPMNIKGLFEVAVKVKNLEKSSQFYTEILGFEAGLLDSARRWNFLWVSGRAGMVVLQEEKENWQQQHFSFRVEKSEIEPLKKALESKGVSVHGPVNLEWMQAVSLYFADPNGHALEFTAL
- protein production: not failed

Sequence: EPNRLIKEKSPYLLQHAYNPVDWYPWGEEAFEKARKENKPVFLSIGYSTCHWCHMMAHESFEDEEVAGLMNEAFVSIKVDREERPDIDNIYMTVCQIILGRGGWPLNIIMTPGKKPFFAGTYIPKNTRFNQIGMLELVPRIKEIWEQQHEEVLDSAEKITSTIQEMIKESSG
- protein production: not failed

Sequence: HMPSVIVVGGQWGDEGKGSIVAYLSLHDEPEIIARGGVGTNAGHSVVINGKKYAVRQIPTGFMQTKARLLIGAGVLVDPEVFFHELEQLKDFNVKDRVGIDYRCAIIEEKHKQLDRTNGYLHGKIGTTGSGCGPANADRVMRKAKQAKDVKELEPYLTDVAQEINDALDEGSLVLVEGTQGFGLSLYYGTYPYVTSKDVTASSVAADVGIGPTRVDEVIVVFKSFPTRVGAGPFPTEMPMEEADRLGLVEYGTVTGRRRRVGWFDFEMARYSARINGATMLAVTMLDKYDKEAFGVTDYDKLPRKAKEFIEEIEERVGVPVGLIKTGPELEHIIDRRDTI
- protein production: not failed

Sequence: MEDAAEQERGFHVITIRKQIVTAALPLQDHWLPLSNLDLLLPPVQISVCFCYKKPRHFLSVAETLKASLAEALVSYYAFAGELVKNSSGEPEILCNNRGVDFLEAVADVELRELNLHDPDESIAKLVPKKKHGVIAIQVTQLKCGSIVVGCTFDHRIADAFSMNMFLVSWAEISRFNAPISSVPSFRRSILNPRRPLIIDSSIDKMYMPVTSLPLPQETTNDLDNILTSRIYYIKENALEDLQTLASGSSPKTGYGQRTKLESFSAFLWKLVAKHTGRDLVSNKNSKMGIVVDGRRRLMEKEDNTYFGNVLSIPFGGQSIDDLIDKPLSWVTNEVHRFLEEAVTKEHFLNLIDWVEIHRPIPAVSRIYSTGTDDGPAFVVSSGRSFPVNKVDFGWGLPVFGSYHFPWEGSSGYVMPMPSPVDDGNGDWVVYLHLTKGQLKFIEEEASHVLKPIDNYYLKINTIN
- protein production: failed

Sequence: DAAPAPAAEAAPAAAPAPAAAAELKEVHVPDIGGDEVEVTEIMVAIGDSIEEEQSLITVEGDKASMEVPAPFAGTLKEIKVAAGDKVSTGSLIMVFETAGSGAPAAPAAVEAPAAAAPAASAA
- protein production: failed

Sequence: MSIEPVFILVRPQMGENIGAAARAMLNFGLGRLRIVDPRDGWPNPKAVAMASGAGRLLDHAGLFPTVAEAIRDCDYVFATTARGRELTKPVMTPERAMAHGRALTGEGRRVGILFGPERTGLENEDVALANAIVTVPVNPEFFSLNLAQCVLLLAYEWRRQHDETPPEVIDMARVDFASGLEVEKLGDHFEEKLEAAGFFFPPEKAPGMKLNLRNMWARLPLTRADVQTLHGMLRQIAWKLKQ
- protein production: not failed

Sequence: MADPTSSERLLVTAALPYANGPIHIGHLAGAYLPADLFVRYQRLKGEDVAFICGSDEMGVAILMRAIREDRTPEDIIDTYHPQIRDNFERFGMSFDYYGRTSSETHTETTQDFFRVLDENGGFDLKTDEQLYDPEAEMFLADRFVIGTCPVCGFEEAYGDQCEQCGSSLSPTELENPQSTLTDATPEFKETTHWYLPLGELQPQLEEWIGSHPEWKNNVVGQIQSWFDEGLKGRAITRDVLWGVPVPDDVAERHGLEAEGKVIYVWFDAPIGYISATKEWAAEQGEPDAWTDYWQDEDTRLVHFIGKDNIVFHCLMFPSMLMEHGDYVLPDNVPANEFLNLEGEKLSTSRGWAVWLHEYLDDFADERHAPDLLRYALATTLPETKDADFSWEGFQQRVNGELANVFGNFVHRTLTFAQRYFDGTVPPLEDPSEADRVMLDRMAEVPDTVGAAYEEHRTRDAVFETMALARRGNKYFNDTEPWHTHESDPQACANTIHVSLQVCAALSILFEPVLPSAAATLRERIGLENVRTSTPDDDPAGAVGWEDAGAPLLPAGHPIPSGPDPEPLFQKIDDDTIEAQIEKLRDRAAERDTDPSSTTDMDYEALSDNISFDDFTQLDLRAGTVTTAEPVPDADKLLRLEVDLGFEERQILAGVAEQMAPDDVVGLEVVVVANMAPKEMFGFESQGMVLMAEEPDGTFVPVTTEAEDGSVVR
- protein production: failed

Sequence: MSIDLKKRKVEEDVRSRGKNSKIFSPFRIIGNVSNGVPFATGTLGSTFYIVTCVGKTFQIYDANTLHLLFVSEKETPSSIVALSAHFHYVYAAYENKVGIYKRGIEEHLLELETDANVEHLCIFGDYLCASTDDNSIFIYKKSDPQDKYPSEFYTKLTVTEIQGGEIVSLQHLATYLNKLTVVTKSNVLLFNVRTGKLVFTSNEFPDQITTAEPAPVLDIIALGTVTGEVIMFNMRKGKRIRTIKIPQSRISSLSFRTDGSSHLSVGTSSGDLIFYDLDRRSRIHVLKNIHRESYGGVTQATFLNGQPIIVTSGGDNSLKEYVFDPSLSQGSGDVVVQPPRYLRSRGGHSQPPSYIAFADSQSHFMLSASKDRSLWSFSLRKDAQSQEMSQRLHKKQDGGRVGGSTIKSKFPEIVALAIENARIGEWENIITAHKDEKFARTWDMRNKRVGRWTFDTTDDGFVKSVAMSQCGNFGFIGSSNGSITIYNMQSGILRKKYKLHKRAVTGISLDGMNRKMVSCGLDGIVGFYDFNKSTLLGKLKLDAPITAMVYHRSSDLFALALDDLSIVVIDAVTQRVVRQLWGHSNRITAFDFSPEGRWIVSASLDSTIRTWDLPTGGCIDGIIVDNVATNVKFSPNGDLLATTHVTGNGICIWTNRAQFKTVSTRTIDESEFARMALPSTSVRGNDSMLSGALESNGGEDLNDIDFNTYTSLEQIDKELLTLSIGPRSKMNTLLHLDVIRKRSKPKEAPKKSEKLPFFLQLSGEKVGDEASVREGIAHETPEEIHRRDQEAQKKLDAEEQMNKFKVTGRLGFESHFTKQLREGSQSKDYSSLLATLINFSPAAVDLEIRSLNSFEPFDEIVWFIDALTQGLKSNKNFELYETFMSLLFKAHGDVIHANNKNQDIASALQNWEDVHKKEDRLDDLVKFCMGVAAFVTTA
- protein production: failed
